Results taken from patent publication US20250000991A1 (Eli Lilly, published 2025).

What was measured:
human nectin-4 on cells [1] = biological target: T1, human nectin-4 on cells (human, UniProt Q96NY8 32-510); assay: flow cytometry, NCI-H1781 cells (low endogenous nectin-4)
T1 construct: also called Nectin-4 receptor
T1 sequence: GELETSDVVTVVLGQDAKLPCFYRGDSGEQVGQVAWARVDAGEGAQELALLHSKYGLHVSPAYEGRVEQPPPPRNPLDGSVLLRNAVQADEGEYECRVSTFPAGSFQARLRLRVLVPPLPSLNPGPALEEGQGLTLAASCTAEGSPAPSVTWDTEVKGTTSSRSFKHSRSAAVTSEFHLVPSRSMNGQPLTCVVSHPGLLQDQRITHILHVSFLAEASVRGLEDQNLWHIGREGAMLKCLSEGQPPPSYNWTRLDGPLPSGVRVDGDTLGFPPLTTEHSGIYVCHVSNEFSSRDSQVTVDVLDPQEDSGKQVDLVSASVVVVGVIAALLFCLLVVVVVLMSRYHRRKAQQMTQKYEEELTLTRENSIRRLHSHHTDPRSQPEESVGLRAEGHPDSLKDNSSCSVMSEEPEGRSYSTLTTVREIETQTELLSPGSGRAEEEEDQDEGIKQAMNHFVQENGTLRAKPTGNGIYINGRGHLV
Description: (§1) Cell lines were selected to represent high and low receptor densities with SUM190PT tumor cells representing high endogenous expression, and NCI-H1781 tumor cells representing lower endogenous expression. […] T24 parental cells were selected as the nectin-4 negative cell line. Antibody binding was quantified via flow cytometry and both the EC₅₀ of the binding curves and the maximum binding MFI for each antibody were recorded.
(§2) Cells were dissociated using non-enzymatic dissociation buffer for 5 min at 37° C. Cells were counted and aliquoted to a V-bottom polypropylene 96-well plate at 10⁵ cells/well. Cells were centrifuged at 1800 rpm×5 min and the supernatant discarded. An 11-point antibody dilution series was prepared in assay buffer (1×PBS containing 1% BSA and 0.09% Sodium Azide) starting at 300 nM and diluting 1:4 down. The dilution series was added to cells at 100 uL/well and mixed by pipetting. Several untreated control wells/cell line were prepared in assay buffer alone. Cells and antibodies were incubated at 4° C. on an orbital shaker for 1 hour. After incubation, the assay plates were centrifuged and washed twice with 300 uL/well of assay buffer. Cell pellets were then stained with a 1:500 dilution of Alexa647 conjugated mouse anti-human IgG secondary antibody in assay buffer, at 100 uL/well. Assay plates were incubated shaking in the dark at 4° C. for 1 hour. After incubation, plates were centrifuged, and the cells washed twice with 300 uL/well of assay buffer. A 1:5000 solution of Zombie Green viability marker (BioLegend) in 1×PBS was aliquoted to the cells at 100 uL/well and plates were incubated in the dark for 10 min shaking at 4° C. Cell pellets were then washed 1× with assay buffer and fixed with 200 uL/well of 4% paraformaldehyde in 1×PBS in the dark at room temperature for 15 min. Cells were centrifuged and washed 1× before resuspending in 65 μL of assay buffer for acquisition on a Sartorious iQue HTFC Cytometer.
(§3) Cells were acquired on a Sartorious iQue HTFC Cytometer and FCS files generated using ForeCyt standard edition (v. 6.2.6652).

human nectin-4 on cells [2] = biological target: T1, human nectin-4 on cells; assay: flow cytometry, SUM190PT cells (high endogenous nectin-4)
Description: as §1, §2, §3

[3] = biological target: T2, human Nectin-4-eGFP on T24 cells (clone 3) (human, UniProt Q96NY8 32-510); assay: cell-based or functional assay
T2 sequence: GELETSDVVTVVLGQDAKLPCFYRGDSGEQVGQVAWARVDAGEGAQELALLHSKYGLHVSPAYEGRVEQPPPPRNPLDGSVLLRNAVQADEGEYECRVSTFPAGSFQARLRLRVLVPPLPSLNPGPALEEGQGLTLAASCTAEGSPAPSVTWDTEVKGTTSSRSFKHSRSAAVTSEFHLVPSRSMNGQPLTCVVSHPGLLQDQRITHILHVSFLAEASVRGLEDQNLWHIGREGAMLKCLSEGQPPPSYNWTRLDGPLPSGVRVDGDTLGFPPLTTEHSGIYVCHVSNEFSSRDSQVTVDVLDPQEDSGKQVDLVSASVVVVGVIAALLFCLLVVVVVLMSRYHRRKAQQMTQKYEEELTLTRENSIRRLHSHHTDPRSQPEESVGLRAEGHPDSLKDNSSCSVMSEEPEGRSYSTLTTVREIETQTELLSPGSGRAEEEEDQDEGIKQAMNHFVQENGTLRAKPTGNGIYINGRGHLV

Binder | % of enfortumab (Average Max MFI) (human nectin-4 on cells [1]) [%] | Average Max MFI (human nectin-4 on cells [1]) [MFI] | EC50 (human nectin-4 on cells [1]) [nM] | % of enfortumab (Average Max MFI) (human nectin-4 on cells [2]) [%] | Average Max MFI (human nectin-4 on cells [2]) [MFI] | EC50 (human nectin-4 on cells [2]) [nM] | % activity (max GFP signal loss compared to enfortumab mAb (100%)) [3] [%] | EC50 (nM) of nectin-4-eGFP signal loss [3] [nM]
Ab3 (antibody, human IgG1, kappa, L234A L235A, V domains shown, Unconjugated antibody; also called Antibody 3; nectin-4 antibody Ab3) VH: EVQLVESGGGLVKPGGSLRLSCAASGFNLNHYNMNWVRQAPGKGLEWVSSVSSGGGFRYYADSVRGRFTISRDNAKNSLYLQMNSLRAEDTAVYYCARGAVFHDAFDIWGQGTLVTVSS VL: DIQLTQSPSFLSASVGDRVTITCRASQDISSYLAWYQQKPGKAPKLLIYVASTLQSGVPSRFSGSGSGTEFTLTISSLQPEDFATYYCQQINSYPFTFGQGTKVEIKR | 105 | 96000 | 0.1 | 112 | 1.2e+06 | 0.23 | 64.4 | 1.3
Ab5 (antibody, human IgG1, kappa, L234A L235A, V domains shown, Unconjugated antibody; also called Antibody 5; nectin-4 antibody Ab5) VH: QVQLVQSGAEVKKPGASVKVSCKASGYTFTSYYVHWVRQAPGQGLEWMGIINPSIISTSYAQKFQARVTMTRDTSTSTVYMELSSLRSEDTAVYYCARGLNFDAFDIWGQGTLVTVSS VL: DIQLTQSPSFLSASVGDRVTITCRASQGISSYLAWYQQKPGKAPKLLIYAASTLQSGVPSRFSGSGSGTEFTLTISSLQPEDFATYYCQQLNNYPFTFGQGTKVEIKR | 102 | 93000 | 0.08 | 145 | 1.5e+06 | 0.31 | 40.1 | 2.69

Continued by falling EC50 (human nectin-4 on cells [1]), values first:

% of enfortumab (Average Max MFI) (human nectin-4 on cells [1]) [%] | Average Max MFI (human nectin-4 on cells [1]) [MFI] | EC50 (human nectin-4 on cells [1]) [nM] | % of enfortumab (Average Max MFI) (human nectin-4 on cells [2]) [%] | Average Max MFI (human nectin-4 on cells [2]) [MFI] | EC50 (human nectin-4 on cells [2]) [nM] | % activity (max GFP signal loss compared to enfortumab mAb (100%)) [3] [%] | EC50 (nM) of nectin-4-eGFP signal loss [3] [nM] | Binder
84.5 | 77000 | 0.2 | 55.6 | 590000 | 0.12 | 145 | 2.54 | Ab1a (antibody, human IgG1, kappa, L234A L235A, V domains shown, Unconjugated antibody; also called nectin-4 antibody Ab1a) VH: QVQLVQSGAQVKKPGASVKVSCKASGYTFTGYYIHWVRQAPGQGLEWMGWINPNSGGTNYAQKFQGRVTMTRDTSISTAYMELSRLRSDDTAVYFCAREDWDFDYWGQGTLVTVSS VL: EIVLTQSPGTLSLSPGERATLSCRTSQSVSSSYLAWYQQKPGQAPRLLIYGASNRATDIPDRFSGSGSGTDFTLTINRLEPEDFAVYYCQQYGSSPITFGQGTRLEIKR
95.8 | 87000 | 0.14 | 97.9 | 1e+06 | 0.19 | 40.9 | 0.41 | Ab4 (antibody, human IgG1, kappa, L234A L235A, V domains shown, Unconjugated antibody; also called Antibody 4) VH: QVQLQESGPGLVKPSETLSLTCTVSGGSISGYYWSWIRQPPGKGLEWIGYIYYSGSTNYNPSLKSRVTISVDTSKNQFSLKLSSVTAADTAVYYCARLGIFFDAFDIWGQGTLVTVSS VL: DIQLTQSPSFLSASVGDRVTITCRASQGISSYLAWYQQKPGKAPKLLIYAASTLQSGVPSRFSGSGSGTEFTLTISSLQPEDFATYYCQQFNSYPWTFGQGTKVEIKR
93.8 | 85000 | 0.03 | 127 | 1.3e+06 | 0.17 | 65.1 | 41.4 | Ab6 (antibody, human IgG1, lambda, L234A L235A, V domains shown, Unconjugated antibody; also called Antibody 6; nectin-4 antibody Ab6) VH: QVQLVQSGAEVKKPGASVKVSCKASGYTFTGYYMHWVRQAPGQGLEWMGIINPSGGSTTYAQKFQGRVTMTRDTSTSTVYMELSSLRSEDTAVYYCARGRLGTYFDYWGQGTLVTVSS VL: SYVLTQPPSVSVAPGQTARITCGGNNIGSKSVHWYQQKPGQAPVLVVYDDSDRPSGIPERFSGSNSGNTATLTISRVEAGDEADYYCQVWDRSSDQVVFGGGTKLTVLG
